Data: paper PMC8554105

Assays:
[1] = target: T. brucei coronin coiled-coil domain (T. brucei) (UniProt Q57W63); assay: SAXS
[2] = target: T. brucei coronin coiled-coil domain (T. brucei) (UniProt Q57W63); assay: SEC
[3] = target: T. brucei coronin coiled-coil domain (T. brucei) (UniProt Q57W63); assay: cross-linking
[4] = target: T. brucei coronin coiled-coil domain (T. brucei) (UniProt Q57W63); assay: crystal structure
[5] = target: T. brucei coronin coiled-coil domain V493I–V507M (T. brucei) (UniProt Q57W63); assay: crystal structure
[6] = target: T. brucei coronin coiled-coil domain V507M (T. brucei) (UniProt Q57W63); assay: crystal structure

Q: What does the source list for “T. brucei coronin coiled-coil domain (from UniProt Q57W63 477-523) (domain or fragment)”?
A: stoichiometry N [1]: 4; stoichiometry N [2]: 4; stoichiometry N [3]: 4; stoichiometry N [4]: 4

Q: Which stoichiometry N [5] does the source give for “T. brucei coronin coiled-coil domain V493I–V507M (from UniProt Q57W63 477-523) (domain or fragment)” here?
A: 4

Q: With “T. brucei coronin coiled-coil domain V507M (from UniProt Q57W63 477-523) (domain or fragment)” as the substance, how does the stoichiometry N [6] read?
A: 4
